Measurements from patent US20220204580A1 (AstraZeneca / MedImmune, published 2022).
Numbered stars: 1 amine (or outer) side, 2 acyl side, 3 side chain; on linkers, the order of the positions; unused ones are H or OH. Bridge positions count the residues as written; N and C are the ends. Square brackets hold non-standard residues; d marks the D form. Side chains are listed from the residue outwards. Ends that are not written are not given here. * marks the point of attachment. C18 diacid = O=C(O)CCCCCCCCCCCCCCCCC(=O)*; γGlu = O=C(O)[C@H](CCC(=O)[*:2])N[*:1]; αMeF = C[C@](N)(Cc1ccccc1)C(=O)O; αMeS = C[C@](N)(CO)C(=O)O; Dab = NCC[C@H](N)C(=O)O; AEEA = NCCOCCOCC(=O)O; Aib = CC(C)(N)C(=O)O

T1: human calcitonin receptor (human, UniProt P30988 25-474)
T1 sequence (looked up): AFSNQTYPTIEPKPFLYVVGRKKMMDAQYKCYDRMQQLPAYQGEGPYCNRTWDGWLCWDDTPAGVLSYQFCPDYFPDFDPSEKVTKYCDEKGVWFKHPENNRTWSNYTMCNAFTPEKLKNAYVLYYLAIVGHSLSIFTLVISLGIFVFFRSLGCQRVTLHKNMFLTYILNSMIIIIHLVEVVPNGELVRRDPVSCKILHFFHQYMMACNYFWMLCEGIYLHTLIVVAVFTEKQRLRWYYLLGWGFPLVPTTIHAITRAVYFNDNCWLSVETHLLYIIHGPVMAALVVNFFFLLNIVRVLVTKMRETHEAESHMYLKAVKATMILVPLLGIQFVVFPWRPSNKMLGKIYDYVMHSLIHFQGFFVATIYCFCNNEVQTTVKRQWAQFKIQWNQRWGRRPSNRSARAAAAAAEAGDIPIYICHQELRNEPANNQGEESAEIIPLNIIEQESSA

T2: human amylin receptor (calcitonin receptor co-expressed with receptor activity modifying protein, RAMP3) (human, UniProt P30988 25-474; O60896 24-148)
T2 sequence (looked up) 1: T1 sequence (looked up)
T2 sequence (looked up) 2: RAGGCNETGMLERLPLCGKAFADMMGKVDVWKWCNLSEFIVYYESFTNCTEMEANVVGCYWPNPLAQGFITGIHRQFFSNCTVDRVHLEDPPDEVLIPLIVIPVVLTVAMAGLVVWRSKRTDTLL

B1: Peptide 156 (SEQ ID NO: 156) (peptide)
peptide: K([γGlu-C18 diacid])KCNTATCATQRLA[Dab]FL[Aib]HSSNNFGPILPPTEVGSNTY-NH2
modifications: disulfide 3-8; N-terminus assumed
SMILES: CC[C@H](C)[C@H](NC(=O)[C@@H]1CCCN1C(=O)CNC(=O)[C@H](Cc1ccccc1)NC(=O)[C@H](CC(N)=O)NC(=O)[C@H](CC(N)=O)NC(=O)[C@H](CO)NC(=O)[C@H](CO)NC(=O)[C@H](Cc1c[nH]cn1)NC(=O)C(C)(C)NC(=O)[C@H](CC(C)C)NC(=O)[C@H](Cc1ccccc1)NC(=O)[C@H](CCN)NC(=O)[C@H](C)NC(=O)[C@H](CC(C)C)NC(=O)[C@H](CCCNC(=N)N)NC(=O)[C@H](CCC(N)=O)NC(=O)[C@@H](NC(=O)[C@H](C)NC(=O)[C@@H]1CSSC[C@H](NC(=O)[C@H](CCCCN)NC(=O)[C@@H](N)CCCCNC(=O)CC[C@H](NC(=O)CCCCCCCCCCCCCCCCC(=O)O)C(=O)O)C(=O)N[C@@H](CC(N)=O)C(=O)N[C@@H]([C@@H](C)O)C(=O)N[C@@H](C)C(=O)N[C@@H]([C@@H](C)O)C(=O)N1)[C@@H](C)O)C(=O)N[C@@H](CC(C)C)C(=O)N1CCC[C@H]1C(=O)N1CCC[C@H]1C(=O)N[C@H](C(=O)N[C@@H](CCC(=O)O)C(=O)N[C@H](C(=O)NCC(=O)N[C@@H](CO)C(=O)N[C@@H](CC(N)=O)C(=O)N[C@H](C(=O)N[C@@H](Cc1ccc(O)cc1)C(N)=O)[C@@H](C)O)C(C)C)[C@@H](C)O
B2: Peptide 17 (SEQ ID NO: 17) (peptide)
peptide: K([AEEA-AEEA-γGlu-C18 diacid])CNTATCATQRLANFLRHSSNN[αMeF]GPILPPTEVGSNTY-NH2
modifications: disulfide 2-7; N-terminus assumed
SMILES: CC[C@H](C)[C@H](NC(=O)[C@@H]1CCCN1C(=O)CNC(=O)[C@](C)(Cc1ccccc1)NC(=O)[C@H](CC(N)=O)NC(=O)[C@H](CC(N)=O)NC(=O)[C@H](CO)NC(=O)[C@H](CO)NC(=O)[C@H](Cc1c[nH]cn1)NC(=O)[C@H](CCCNC(=N)N)NC(=O)[C@H](CC(C)C)NC(=O)[C@H](Cc1ccccc1)NC(=O)[C@H](CC(N)=O)NC(=O)[C@H](C)NC(=O)[C@H](CC(C)C)NC(=O)[C@H](CCCNC(=N)N)NC(=O)[C@H](CCC(N)=O)NC(=O)[C@@H](NC(=O)[C@H](C)NC(=O)[C@@H]1CSSC[C@H](NC(=O)[C@@H](N)CCCCNC(=O)COCCOCCNC(=O)COCCOCCNC(=O)CC[C@H](NC(=O)CCCCCCCCCCCCCCCCC(=O)O)C(=O)O)C(=O)N[C@@H](CC(N)=O)C(=O)N[C@@H]([C@@H](C)O)C(=O)N[C@@H](C)C(=O)N[C@@H]([C@@H](C)O)C(=O)N1)[C@@H](C)O)C(=O)N[C@@H](CC(C)C)C(=O)N1CCC[C@H]1C(=O)N1CCC[C@H]1C(=O)N[C@H](C(=O)N[C@@H](CCC(=O)O)C(=O)N[C@H](C(=O)NCC(=O)N[C@@H](CO)C(=O)N[C@@H](CC(N)=O)C(=O)N[C@H](C(=O)N[C@@H](Cc1ccc(O)cc1)C(N)=O)[C@@H](C)O)C(C)C)[C@@H](C)O
B3: Peptide 19 (SEQ ID NO: 19) (peptide)
peptide: K([γGlu-C18 diacid])CNTATCATQRLANFLRHSSNN[αMeF]GPILPPTNVGSNTY-NH2
modifications: disulfide 2-7; N-terminus assumed
SMILES: CC[C@H](C)[C@H](NC(=O)[C@@H]1CCCN1C(=O)CNC(=O)[C@](C)(Cc1ccccc1)NC(=O)[C@H](CC(N)=O)NC(=O)[C@H](CC(N)=O)NC(=O)[C@H](CO)NC(=O)[C@H](CO)NC(=O)[C@H](Cc1c[nH]cn1)NC(=O)[C@H](CCCNC(=N)N)NC(=O)[C@H](CC(C)C)NC(=O)[C@H](Cc1ccccc1)NC(=O)[C@H](CC(N)=O)NC(=O)[C@H](C)NC(=O)[C@H](CC(C)C)NC(=O)[C@H](CCCNC(=N)N)NC(=O)[C@H](CCC(N)=O)NC(=O)[C@@H](NC(=O)[C@H](C)NC(=O)[C@@H]1CSSC[C@H](NC(=O)[C@@H](N)CCCCNC(=O)CC[C@H](NC(=O)CCCCCCCCCCCCCCCCC(=O)O)C(=O)O)C(=O)N[C@@H](CC(N)=O)C(=O)N[C@@H]([C@@H](C)O)C(=O)N[C@@H](C)C(=O)N[C@@H]([C@@H](C)O)C(=O)N1)[C@@H](C)O)C(=O)N[C@@H](CC(C)C)C(=O)N1CCC[C@H]1C(=O)N1CCC[C@H]1C(=O)N[C@H](C(=O)N[C@@H](CC(N)=O)C(=O)N[C@H](C(=O)NCC(=O)N[C@@H](CO)C(=O)N[C@@H](CC(N)=O)C(=O)N[C@H](C(=O)N[C@@H](Cc1ccc(O)cc1)C(N)=O)[C@@H](C)O)C(C)C)[C@@H](C)O
B4: Peptide 21 (SEQ ID NO: 21) (peptide)
peptide: K([γGlu-γGlu-C18 diacid])CNTATCATQRLANFLVHSSNN[αMeF]GPILPPTNVGSRTY-NH2
modifications: disulfide 2-7; N-terminus assumed
SMILES: CC[C@H](C)[C@H](NC(=O)[C@@H]1CCCN1C(=O)CNC(=O)[C@](C)(Cc1ccccc1)NC(=O)[C@H](CC(N)=O)NC(=O)[C@H](CC(N)=O)NC(=O)[C@H](CO)NC(=O)[C@H](CO)NC(=O)[C@H](Cc1c[nH]cn1)NC(=O)[C@@H](NC(=O)[C@H](CC(C)C)NC(=O)[C@H](Cc1ccccc1)NC(=O)[C@H](CC(N)=O)NC(=O)[C@H](C)NC(=O)[C@H](CC(C)C)NC(=O)[C@H](CCCNC(=N)N)NC(=O)[C@H](CCC(N)=O)NC(=O)[C@@H](NC(=O)[C@H](C)NC(=O)[C@@H]1CSSC[C@H](NC(=O)[C@@H](N)CCCCNC(=O)CC[C@H](NC(=O)CC[C@H](NC(=O)CCCCCCCCCCCCCCCCC(=O)O)C(=O)O)C(=O)O)C(=O)N[C@@H](CC(N)=O)C(=O)N[C@@H]([C@@H](C)O)C(=O)N[C@@H](C)C(=O)N[C@@H]([C@@H](C)O)C(=O)N1)[C@@H](C)O)C(C)C)C(=O)N[C@@H](CC(C)C)C(=O)N1CCC[C@H]1C(=O)N1CCC[C@H]1C(=O)N[C@H](C(=O)N[C@@H](CC(N)=O)C(=O)N[C@H](C(=O)NCC(=O)N[C@@H](CO)C(=O)N[C@@H](CCCNC(=N)N)C(=O)N[C@H](C(=O)N[C@@H](Cc1ccc(O)cc1)C(N)=O)[C@@H](C)O)C(C)C)[C@@H](C)O
B5: Peptide 22 (SEQ ID NO: 22) (peptide)
peptide: K([γGlu-γGlu-C18 diacid])CNTATCATQRLANFLVHS[αMeS]NNFGPILPPTNVGSNTY-NH2
modifications: disulfide 2-7

target: T1, human calcitonin receptor; experiment: cell-based or functional assay

Row | EC50 (cAMP production) [nM] | Binder
1 | 83.8 | B1
2 | 7.08 | B2
3 | 4.04 | B3
4 | 3.41 | B4
5 | 6.54 | B5

target: T2, human amylin receptor (calcitonin …); experiment: cell-based or functional assay

Row | EC50 (cAMP production) [nM] | Ratio (EC50 hCTR / EC50 hAMYR3) | Binder
6 | 3.75 | 22.3 | B1
7 | 0.365 | 19 | B2
8 | 0.278 | 15 | B3
9 | 0.136 | 25 | B4
10 | 0.162 | 40 | B5
